In data set [1] the test system is T1, O=Cc1ccc([N+](=O)[O-])cc1.
T1 construct: N-terminal His-SUMO fusion (Champion pET SUMO), tag not cleaved; E. coli BL21(DE3)
The data set is described as follows: coupled HRP H2O2 assay, Michaelis-Menten. The data set is classed as biochemical, Methylovorus sp. MP688. To be noted: O2 (co-substrate), 100 mM sodium phosphate pH 7.0, 30 °C, aldehyde oxidised via its gem-diol hydrate. An excerpt:
(§1) coupled HRP H2O2 assay, Michaelis-Menten on 5-(hydroxymethyl)furfural oxidase (HMFO)

The subject of another data set is T2, O=[N+]([O-])c1ccc(CO)cc1.
T2 construct: N-terminal His-SUMO fusion (Champion pET SUMO), tag not cleaved; E. coli BL21(DE3)
Put plainly: coupled HRP H2O2 assay, Michaelis-Menten. The data set is classed as biochemical, Methylovorus sp. MP688. To be noted: O2 (co-substrate), 100 mM sodium phosphate pH 7.0, 30 °C.
Description: as §1

Substrate in the data set “purified protein”: O=[N+]([O-])c1ccc(CO)cc1
The data set is described as follows: purified protein. To be noted: O2 (co-substrate), 100 mM sodium phosphate pH 7.0, 30 °C.

Substrate in data set [2]: O=Cc1ccc([N+](=O)[O-])cc1
Put plainly: coupled HRP H2O2 assay, Michaelis-Menten. The data set is classed as biochemical, Methylovorus sp. MP688. To be noted: O2 (co-substrate), 100 mM sodium phosphate pH 7.0, 30 °C, aldehyde oxidised via its gem-diol hydrate.
Description: as §1

Regarding “5-(hydroxymethyl)furfural oxidase (HMFO) (Methylovorus sp. MP688; W466H)”, in data set [1], the Km worked out at 160 µM, the kcat amounted to 0.003 s⁻¹ and the specificity constant (kcat/Km) came to 20 M⁻¹ s⁻¹. In addition, in the data set on O=[N+]([O-])c1ccc(CO)cc1, the Michaelis constant (Km) turned out to be 400 µM, the catalytic constant (kcat) was 0.02 s⁻¹ and the specificity constant (kcat/Km) was determined as 50 M⁻¹ s⁻¹.
For “5-(hydroxymethyl)furfural oxidase (HMFO) (Methylovorus sp. MP688; V465T)”, in the data set on O=[N+]([O-])c1ccc(CO)cc1, the Michaelis constant (Km) stood at 30 µM, the catalytic constant (kcat) is 1.7 s⁻¹ and the kcat/Km came out at 57000 M⁻¹ s⁻¹.

B1: 5-(hydroxymethyl)furfural oxidase (HMFO) (Methylovorus sp. MP688) (protein)
chain: MTDTIFDYVIVGGGTAGSVLANRLSARPENRVLLIEAGIDTPENNIPPEIHDGLRPWLPRLSGDKFFWPNLTIHRAAEHPGITREPQFYEQGRLLGGGSSVNMVVSNRGLPRDYDEWQALGADGWDWQGVLPYFIKTERDADYGDDPLHGNAGPIPIGRVDSRHWSDFTVAATQALEAAGLPNIHDQNARFDDGYFPPAFTLKGEERFSAARGYLDASVRVRPNLSLWTESRVLKLLTTGNAITGVSVLRGRETLQVQAREVILTAGALQSPAILLRTGIGPAADLHALGIPVLADRPGVGRNLWEHSSIGVVAPLTEQARADASTGKAGSRHQLGIRASSGVDPATPSDLFLHIGADPVSGLASAVFWVNKPSSTGWLKLKDADPFSYPDVDFNLLSDPRDLGRLKAGLRLITHYFAAPSLAKYGLALALSRFAAPQPGGPLLNDLLQDEAALERYLRTNVGGVWHASGTARIGRADDSQAVVDKAGRVYGVTGLRVADASIMPTVPTANTNLPTLMLAEKIADAILTQA
notes: N-terminal His-SUMO fusion (Champion pET SUMO), tag not cleaved; E. coli BL21(DE3)
For B1, in the data set “purified protein”, the Km was 260 µM, the kcat amounted to 7.4 s⁻¹ and the kcat/Km was 28000 M⁻¹ s⁻¹. For the same molecule, in data set [2], the Km was found to be 310 µM, the kcat stood at 0.3 s⁻¹ and the kcat/Km is 970 M⁻¹ s⁻¹.

The term Km denotes the substrate concentration at which the rate is half of its maximum. A word on the kcat: it is the number of substrate molecules converted per active site and unit of time at saturation. Broadly, the kcat/Km is the turnover number divided by the Michaelis constant.

Values taken from PMC6149797, “Rational Engineering of a Flavoprotein Oxidase for Improved Direct Oxidation of Alcohols to Carboxylic Acids” (Molecules : A Journal of Synthetic Chemistry and Natural …, 2017).
